Measured values published in the DeepSol protein solubility set.

Assay: soluble on expression in E. coli; label from the status in PepcDB or PDB records

Soluble on expression in E. coli, not soluble:
MGSDKIHHHHHHMSTNLDQLTDWLKEHKITEVECMVSDLTGITRGKISPTNKFIAEKGMRLPESVLLQTVTGDYVEDDIYYELLDPADIDMICRPDQNAVYLVPWAVEPTAQVIHDTYDKQGNPIELSPRNVLKKVLKLYADQGWQPIVAPEMEFYLTKRSDDPDYPLQPPIGRSGRPETGRQSFSIEAANEFDPLFEDVYDWCELQNLDLDTLIHEDGTAQMEINFRHGDALSLADQILVFKRTMREAALKHDVAATFMAKPMTGEPGSAMHLHQSIIDIETGKNIFSNEDGTMSELFLNHVGGLQKFIPELLPLFAPNVNSFRRFLPDTSAPVNVEWGEENRTVGLRVPDAVPQNRRVENRLPGADANPYLAIAASLLCGFIGMVEGINPSAPVVGRGYERRNLRLPLTIEDALERMENSKTIEKYLGKKFIIGYVAVKRAEHENFKRVISSWEREFLLFAV
MGSDKIHHHHHHMSTPTRIITSKDIETGKHISPAQRLRIMNADEWEEFIEEWTDSLKKEYFKVERLGGAGDKGRDIVAQLENAEIWDNYQCKHYGHSLRPSDIWTEIGKLVYYTAIGDFTCPRKYFFIAPLGVGTSLSDLLKNPRKLVQGLRENWDKYCKDKITQNCLIKLSDMEPQLEKIDFSIFGYVTPLTIIEQHRKTPHFITRFGGGLPKREIPPEPPIKSTSEESEYLKKILQAYSDFNKQDISTIDDVTDIDLTEHYKDSRIQFYSAEALKRFSRDALPENEFKLLQQEFLNGIKDEIRNPVHANGYLRLLEVVKVARALQITSHALIDCLMVNDRGGICHQLANDNESIAWAKNG
MGSDKIHHHHHHMSVETLPIILKELRLVSLLPHWQPLAEKAREQHWPVERYLAELCQLELSCREQKRLHRGLKEATLPIGKYLDTYDFSEVEGLSKKQVWHLADNAEWLKTGDNILLFGASGLGKTHIAAGLGYRLVEQGHRVKFMSASLLVQHLQKAKEELRLPEALVKLDRFAVLILDDLGYVQKSTEETSVLFELIAHRYERYSLIITSNQSFEDWDKLFSDTVMTVAAIDRLIHHAKILQCKGESYRRKEAQNKLN
MGSDKIHHHHHHMTAIANRYEFVLLFDVENGNPNGDPDAGNMPRIDPETGHGLVTDVCLKRKIRNHVALTKEGAERFNIYIQEKAILNETHERAYTACDLKPEPKKLPKKVEDAKRVTDWMCTNFYDIRTFGAVMTTEVNCGQVRGPVQMAFARSVEPVVPQEVSITRMAVTTKAEAEKQQGDNRTMGRKHIVPYGLYVAHGFISAPLAEKTGFSDEDLTLFWDALVNMFEHDRSAARGLMSSRKLIVFKHQNRLGNAPAHKLFDLVKVSRAEGSSGPARSFADYAVTVGQAPEGVEVKEML
MGSDKIHHHHHHMTAIQHIERLARGRSEQAVAVIKNVQQMSNIPMHEMQLALKQLLNCGRIALHFHPDRIDSRGMTVAEGLLRDGQYRSQFETHISNGQLSPELGGPRDHWENQLFGDVYKGTKSRPKYGALDLGMWQDGPAPRFGSCYLLTHASVMARSTFCYLDSYRNPKEKGTLSCFDDVLAALLTESFERHYALGKSDFKPLNVIHYLGHQLNASLLSRFERPLSNNLDHYIEAQIHGDVSLDEDIAMLVADPSFKGTDIGASLSKICDRYDIELQYHDGFSLHTAQIPSDFRGPTMPSQANRIAIEDRVDAYAIGVAARDLYHSPQHWRDRGNRAQVAHELKLLWHVLVKYGAVQ
MGSDKIHHHHHHMTAQRPNRLINESSPYLLQHARNPVDWHPWGEEAFALARSEDKPVFLSIGYSTCHWCHVMAHESFEDEAVAALLNEAFINVKVDREDRPDIDSIYMAACQMLTGSGGWPLTIVMTPDGRPFFAATYIPRLSRGGRTGMLELVPRIRDIWRKQRADVTASADSVAEHMRRHAEGLLRPSSGGAPDDTTVRQAVDTLCQRYDARHGGFGSAPKFPAPHSLLLLLRHAHRTQDAARRAQLTGMVSHTLEAMRLGGIFDHAGYGFHRYSTDKEWLLPHFEKMLYDQAMHVLAYTRGWQLTGRPLFRRTAEEIMMYVMRDLTSPQGAFYAAEDADSDAPPHFAAMGLPHRGEGFFYLFTLQEIRGLLSREDALLAEKIWNLQEEGN
MGSDKIHHHHHHMTARTSALAIEIDRQDRSPIYLQICERFRTAIAAGHLRPGDRVPALRGLALQLNTARGTVEMAYTILVDEGYLQMRGAAGTFVSASLPASVTRPARGGDREQPPAREQGATKSSHALRGRQPATRQLAIAVAMSGEPKLLQPGLPALDAFPRKLWNRLVSRCARSGERAMLAYPDPVGYRALREHIATYLGLSRGVACVPEQVFITAGYRATLELVLRSLASPNDRMWFEDPGYLLARGFLAEVGVNLVPVPIDSEGIDVDRGIALDPLARFALVTPSHQAPLGYTLSLARRMALLDWAAKGSSWIIEDDYDSEFRYVGRPLPALKSLDKDDRVIYCGTFSKVMFPGLRLAYAVVPERAVERVERVACSMNAGSPTLLQAAVADFIEQGHFARHVKRMRALYGQRRTLIAHALEQAFGERMLVELPHGGIQFAVQFAEGPDGPVDDVAVAARARDAGLAVVPLSIWYANGRTRRTPRGLVMGFANVTDAREALRLARTLYGCLTG
MGSDKIHHHHHHMTDCADAQGLIAKITGVCFNHQLNIIKNSEFVDNAQGRFFMRTELEGHFHCEQLLQDLRQVLPAQNHMTLVSAGKKRIVILVTKEAHCLGDLLMKAYYGGLNVEIAAVVGNHDVLRELVEKFDIPFHLVSHEGLDRIQHEQALLAAVSQYSPDYLVLAKYMRVLTPDFVAEYPNRILNIHHSFLPAFIGAAPYRQAWERGVKIIGATAHFVNNCLDEGPIIKQDVIPVDHSYSALEMAKAGRDVEKSVLSKALQLVLNEQVVVYGNKTIVF
MGSDKIHHHHHHMTDKLLKQHKRLLEQQHKLPYTINLSGEVFTIIIYTKLSKVAGVTVLNSQEEPATVKEAEAVVNRIQKYNFYFEYLGKRAHVIKERDSIIAEKIEQTQLILNDNTIFGEKMQPTIDELNLAMEVYKQQQRKMDVYQEDITLLNQKIKMQGEILEEDWESAENLSIAFAKAAYAQSIYLEATRKNRKQLAKWFHLHQKELPTDKQKALSKMVSVLSDTNAGLVFDQIISLRPLLEEGLMLDHEQSLTQRAAEFNKEFETHCRFYKPNINKVKNLIRQ
MGSDKIHHHHHHMTDLGLYRHLDQMAPWNDRLQVLEVIGVSDEAPDVKTFTFRSDNQTWFRYKPGQFVTLELPTPDGPLMRTYTLSSSPSRPFSIAVTVKAQAGSIGTRWMFDHLVPGSHVKAYGPSGDFSLHSHPAAKYLFISAGSGVTPMMSMLRWLNDCAPWTDVGFVNCARRPEEIIFRKELELLGGHMPGLSLGFMIEERSSREGWYGHMGRIDAIRLPLLAPDFREREIFCCGPDPFMRAVRGMLEAAGFDMTKYHQESFAAPAVEEVPAPFVSPGEDGVTVPVEATPIRFALSVVDAECVAGQTVLQTARASGVRIPAACEFGLCGTCKVKKVSGAVEMSHNGGILDHEIDDGFILACCSKPLSALEIEA
MGSDKIHHHHHHMTEATYNFAYLDEQTKRMIRRAILKGIAIPGYQVPFASREMPMPYGWGTGGVQVTASILGPDDTLKVIDQGSDDTTNAISIRKFFAKTAGVATTTATPDASVIQTRHRIPETPLHEGQVLVYQVPIPEPLRYLEPRETETRRMHALAEYGLMHVKLYEDIAKFGHIATAYAYPVKVAGRYVMDPSPTPKFDNPKMDNCPALQLFGAGREKRIYAIPPYTQVVSLDFEDHPFTRYRQDGCCALCGADDSYLDEIVTDNAGTRMFVCSDTDYCEGRRAQGHTGSETAPMESAHA
MGSDKIHHHHHHMTENEFLSQEEIDKLLSDSDTGGVLTPEEKDMIGEIGNIAMGSAATTLSMILGRDIHITVPTVREEKMKNVKSDFSGEQVVVSVEYTEGLEGLNVLVLDKKLVAVIADLMMGGSGEVETEELDEIKLSAVGEAMNQMMGSAATSLSELLGITINISPPKVEILNFDDPNTQFPPVTDNPEKDVAVVEFEMEIEGLPKSKFYQVISADLVKKMYEYFTKKQSEAAEKKEKKEEKKVKVEPVEFAELKPSETRKTEVPSDKLELLLDIPLKVTVELGRTRMTLKRVLEMIPGSIIELDKLTGEPVDILVNGKLIARGEVVVIDENFGVRITEIVSPKERLELLNE
MGSDKIHHHHHHMTETLLVTGAAGQLGRGVIRYLMDTHKVPPAKIIATTRNPENVADLAARGVVVRAADFNDATSLENAFKGADRVLIISTSDLDLKTGRRLKQHEAAVAAAKKAGVSHLLYTSMPNPEPVSPVLFAGDHYGTEQAIKASGIAYTIFRNGWYQENLFIALPHAIASGQWYTSAGDGRIAHGSRDDMAAAIAAGLASGSTDSKTYTLTGPQAYTTAEIAALVSEVTGKPLEVIQLPDEALTEGVKAAGVPEEFARVIVSFDANTRSGRIAMATDAVETLSGRKPRTLKQFLEANKAALAG
MGSDKIHHHHHHMTFGLLHRWLTDMGMTISKNTLRNWLTKDKTYLDELVCVLKSIALEKDSIVNCDETWCKVRKYDHYKKCYIGVLVNKARKTAIFFYENGSCGRDVLTDFLGDAELKSIMSDGYNAYVFIGNELKLGRFKDTVHQVCMSHAKNKFVKASNQGGEPTAERFSEILKEFFMRDREYDDAGLTPKERFQERQSLETKELLIELRSLLDSEQSKDSEFRSRYYKEALNYLNRFRKEIFAYLDDGELPIDNNLAERTIRKLTTQRNNSLHYGSDAGAEMAATYHSVIGTVKLLGSSIWNFIGTFFKNIFNGCRDYVNMVPDKITLATSQC
MGSDKIHHHHHHMTGLTEDLFGELLPPASPPQACVAGGGAPSPDKASRGKSVLPARPDPAIDALARRLPPNLYLGTSSWSYNGWNGLVYDGEYSDNLLSRKGLAAYSRHPLLRAAGIDRGFYGPIPLADYLSYAAQVPEQFRFLVKAPASVCDAWLRGSDGVGRLANAAFLDAEIAIRDFITPATSGLGAKCGPLLFQLSPLGSLANDAAAFLDRLDGFLSALPPLDPSITPHACYAVEMRDPVLLTPRYIKLLRRYGVRFCLSARDRLPPVHRQASAQALMDAEAPGPLVLRWMLHAGRPYEVAESIYAPFNRLVDEDPETRDAIADLVVRTLNAGQSATVIISNKAEGSAPLTCIRLAEAIAARL
MGSDKIHHHHHHMTHEFVTILHTNDLHSHVEHWPRIANWIKTRRAQLQAAGHFVLTFDVGDFIDRYDANTQATWGKANVELLNDCTFDGVTIGNNEGLGLPRDRMEDIYSERRFAVLLANIFENDHGLPKWAEEYRVFVTPKGTRISAFGLTAAYDLTYPLLDWLPAQPVETLEKLSDRVIAQSDIRILLSHLGLPTDQSLARRFKEISVILGAHTHHLLPKGQMVENTLLAAAGKYGENVGEVDLEIDEKHQVVSERAHTIKFDNLPEVESASAFLENWRESGRNILENQIISNLPTDRSTLQQIDDCADALMEKFQTKIAMISSGMFLDELPAGQLNAFQLLKDLPHTIHPMKIDILGSDLLKLFDEINLQHDHLLNQHINGSGFRGDKFGEIKFYGLHEKQVDPKQHYEIASLDHYYFLPWFHSLQSADVSFDFKNILRELTAGYYREKYSHQEAV
MGSDKIHHHHHHMTHQNSPLFLKSALRLYNRASFKASHKVIEEYSTSFSLSTWLLSPRIRNDIRNLYAVVRIADEIVDGTAHAAGCSTAKIEEILDAYEIAVLAAPQQRFNTDLVLQAYGETARRCDFEQEHVIAFFASMRKDLKANTHDPDSFTTYVYGSAEVIGLLCLSVFNQGRTISKKRLEIMQNGARSLGAAFQKINFLRDLAEDQQNLGRFYFPKTSQGTLTKEQKEDLIADIRQDLAIAHDAFPEIPVQARIGVISAYLLFQKLTDRIEATPTADLLRERIRVPLHIKLSTLARATMKGLSMSIYRKNS
